Assay results from the supplement of paper PMC9170038.

System: MS2 coat protein
Test: apparent KD of MS2 coat protein; designed switch direction (-1 OFF switch, 1 ON switch): -1; higher = weaker reporter binding
How it was run: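 Designed RNA switches with common flanks were transcribed on Illumina chips by stalled E. coli RNA polymerase and titrated with SNAP-549-labelled MS2 coat protein, from 0.7 or 1.5 nM doubling to 3 µM, in Tris-HCl pH 7.5 buffer with KCl, MgCl2, BSA, DTT, tRNA and Tween-20. Steps lasted 0.8–1.5 h (lowest) to 10–20 min (highest). Titrations ran without input, with 200 uM small-molecule ligand, or with an oligonucleotide input. Normalised cluster fluorescence was curve-fitted, and apparent KD is the per-design median over clusters.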

[1] = Eterna round: R95, input ligand: microRNA oligo, concentration not stated
[2] = input ligand: microRNA oligo, concentration not stated
[3] = Eterna round: R95, input ligand: FMN 200 uM
[4] = Eterna round: R95, input ligand: none

Row | Sequence | apparent KD of MS2 coat protein [1] [nM] | apparent KD of MS2 coat protein (input ligand: FMN 200 uM) [nM] | apparent KD of MS2 coat protein [2] [nM] | apparent KD of MS2 coat protein (input ligand: none) [nM] | apparent KD of MS2 coat protein [3] [nM] | apparent KD of MS2 coat protein [4] [nM]
1 | ACGUUUUUUGAGGAUAUGCGAUAUUUUUUUAUCGUAGAAGGCGAUACAUGAGGAUCACCCAUGUUUAUGGGCAU [LRO-Ex6-19] (puzzle: Exclusion 6) | 143 |  |  |  |  | 
2 | UCUCGCGGGCAAGGAUAUCCUACGUUGUUCUGGCCCGUGUAUGUUACAUGAGGAUCACCCAUGUGGGAGAAGGUGCACCAGGGC [Design 39] (Eterna round: R96, puzzle: Exclusion NG 2) |  | 72.8 | 43.8 | 77.4 |  | 
3 | AACAGGUCAGGAUAUACAUGAGGAUCACCCAUGUAGACUUCUAGUCUACCGAGGCUGUGUAGAAGGGACCUGAA [Exclusion 3 (MOD4 of #98 Marzena11)] (Eterna round: R97, puzzle: Exclusion 3) |  | 175 |  | 43.3 |  | 
4 | CUGGACCCGGUAGGAUAUAUUGUGGGCGGGCGUGGAACGACAUGAGGAUCACCCAUGUGAUUGAGGUAGAAGGGCCGAGAGGUC [Excl-NG2-LRO19] (Eterna round: R96, puzzle: Exclusion NG 2) |  | 43.2 | 31.2 | 42.9 |  | 
5 | AAAAGUUAAGGAUAUACUUGAGGAUCACCCAAGUAGGUGGCUUCAGCCGGGAAACGGCGUAGAAGGUAGCAGAA [Atorin] (Eterna round: R97, puzzle: Exclusion 3) |  | 65.2 |  | 60.5 |  | 
6 | ACUGGUCGAGGAUAUACAUGAGGAUCACCCAUGUAGAUCAACCAGCGAUAGCUGGAAUGUAGAAGGCGACCAGU [E3/5-A2] (Eterna round: R97, puzzle: Exclusion 3) |  | 191 |  | 24.6 |  | 
7 | GAUGUGGGUUUUCAGAGUAACAUGAGGAUCACCCAUGUAGAAGUUGGAGGGAUCAAGCUUUUUGGUCGUCAUAUGUG [JR_SV3TOV1_Sub051] (Eterna round: R96, puzzle: Sensor v3, turn-off variant 1) |  | 603 | 358 | 588 |  | 
8 | CGCACCACAUGAGGAUCAAACAUGAGGAUCACCCAUGUAUAACAAGCUUUUUGCUCGUCUUAUAAAUAUGUGGUGCG [Electric Eye 3 - Jieux - Sensor, turn-off variant 1] (Eterna round: R97, puzzle: Sensor, turn-off variant 1) |  | 13.9 |  | 14.2 |  | 
9 | GUCGCUUUUUGUUUGUUUUACAUGAGGAUCACCCAUGUACGUUGGUUACAAUAAAGUUCCGUGGCGGAUCAAUCUGA [Eternabot (L1) Solution 12] (Eterna round: R97, puzzle: Sensor, turn-off variant 1) |  | 24.9 |  | 28.2 |  | 
10 | CAUCAGAUAGGAUAUACAGGCCCGUCUUUAUAUUGAUCCCGACAUGAGGAUCACCCAUGUAGAAGGAUCAGAUG [Mod 27 - Jieux - Exclusion 2] (Eterna round: R97, puzzle: Exclusion 2) |  | 21.2 |  | 16.1 |  | 
11 | UCAUGGAAGCAGGAUAUGCUUGUUUAAUUGUUUGCAGAAGGGCUAACAUGAGGAUCACCCAUGUGAGAGGUCUA [JR_E6_Sub064] (puzzle: Exclusion 6) | 33.8 |  |  |  | 20.5 | 36.7
12 | UGGGAGGGAGGAUAUACGAAAGUUAUUCUCAUGUCAGACCCACAUGAGGAUCACCCAUGUAGAAGGCCCGGGUC [EX2 B.17] (Eterna round: R97, puzzle: Exclusion 2) |  | 358 |  | 203 |  | 
13 | UUUUUGAUAGGAUAUACAUGAGGAUCACCCAUGUGUGACAGGACUGACGCUCUUCAUCGUAGAAGGAUCCGAGC [Eternabot (L1) Solution 97] (Eterna round: R97, puzzle: Exclusion 3) |  | 27.4 |  | 30.9 |  | 
14 | UCAACGCAAGGAUAUACUUGCGGUGAUGUUCGAAUUCUUCUACUUGAGGAUCACCCAAGUAGAAGGUGCGAUGA [jl-ex2.4.62 ViennaUCT mod] (Eterna round: R97, puzzle: Exclusion 2) |  | 12.5 |  | 13.4 |  | 
15 | CACCGUUACAUAGGAUAUGUUACAUGAGGAUCACCCAUGUAAUAAAUGAGAAUUUCGAAUGUAAUACAGAAGGAUGGAAUCGGC [Ostracism 71 - Jieux - Exclusion NG 2] (Eterna round: R96, puzzle: Exclusion NG 2) |  | 28.7 | 16.6 | 17.7 |  | 
16 | GUUAAACAUGAGGAUCACCCAUGUAAGGAUAUGCUGAGGUAGAGAUGAAGUGAAUGAAGCAGAAGGUACAAAUG [Mat - Mod of JL D64] (puzzle: Exclusion 1) | 83.2 |  |  |  | 51.5 | 113
17 | UGAAUGUCAGGAUAUCGUGCAUACAACGAAAGUUCUAUGUGCGAGAAGGGACAUGAGGAUCACCCAUGUCUUCG [Omei Ex4 A15] (Eterna round: R97, puzzle: Exclusion 4) |  | 50.7 |  | 18.3 |  | 
18 | CUCCAGACAGGAUAUACGAGGCUGUGUUCCCAUUAUAGGACACAUGAGGAUCACCCAUGUAGAAGGGUCAAUGG [Eternabot (L1) Solution 28] (Eterna round: R97, puzzle: Exclusion 2) |  | 286 |  | 742 |  | 
19 | GUCGGACAUGAGGAUCACCCAUGUGAGGAUAUCCUUUAGAGCUAUUAGUAGAUGCUUAGGAGAAGGCACUAGGG [Eternabot (L2) Solution 17] (Eterna round: R97, puzzle: Exclusion 1) |  | 93.9 |  | 314 |  | 
20 | AAUUACAAGCAAAGAUCUUACAUGAGGAUCACCCAUGUGCUCGUUUUAUAAAGUACUAUCACGAAAGUGAUAGUACA [Mat - Sensor v3 - turn-off var 1 - Eli Mod - D95] (puzzle: Sensor v3, turn-off variant 1) | 90.9 |  |  |  | 29.9 | 26.3
21 | ACAUGAGGAUCACCCAUGUUAUGUUGGGUACUAAAUUAUUCGUAGGAUAUCGUAGCUAGUUUGUGCGAGAAGGACGCAUUUUUU [JR_ExcNG3_Sub059] (Eterna round: R96, puzzle: Exclusion NG 3) |  | 205 | 229 | 273 |  | 
22 | CUCCUACAUGAGGAUCACCCAUGUCAGGAUAUCUCAGUGGUACCUAAAUUUACCACCCAGAGAAGGGACGUGCA [Diradireer] (puzzle: Exclusion 1) | 11.9 |  |  |  |  | 
23 | GGUGAAGCAGGAUAUGUAUCGAUAUACAUGAGGAUCACCCAUGUCAUGUUUGAAUCGCAUAUAGAAGGGCUUCACC [Exclusion 5 (FMN-MS2 slide)] (Eterna round: R97, puzzle: Exclusion 5) |  | 58.1 |  | 20.8 |  | 
